Source: paper PMC7660914 (Microbiology, 2020)

B1: H6 flagella (polymeric FliC flagellin) of E. coli O127:H6 (natural protein)
chain: MAQVINTNSLSLITQNNINKNQSALSSSIERLSSGLRINSAKDDAAGQAIANRFTSNIKGLTQAARNANDGISVAQTTEGALSEINNNLQRIRELTVQASTGTNSDSDLDSIQDEIKSRLDEIDRVSGQTQFNGVNVLAKDGSMKIQVGANDGQTITIDLKKIDSDTLGLNGFNVNGKGETANTAATLKDMSGFTAAAAPGGTVGVTQYTDKSAVASSVDILNAVAGADGNKVTTSADVGFGTPAAAVTYTYNKDTNSYSAASDDISSANLAAFLNPQARDTTKATVTIGGKDQDVNIDKSGNLTAADDGAVLYMDATGNLTKNNAGGDTQATLAKVATATGAKAATIQTDKGTFTSDGTAFDGASMSIDANTFANAVKNDTYTATVGAKTYSVTTGSAAADTAYMSNGVLSDTPPTYYAQADGSITTTEDAAAGKLVYKGSDGKLTTDTTSKAESTSDPLAALDDAISQIDKFRSSLGAVQNRLDSAVTNLNNTTTNLSEAQSRIQDADYATEVSNMSKAQIIQQAGNSVLAKANQVPQQVLSLLQG

Legend:
[1] = molecular target: the molecule itself; experiment: SEC
[2] = molecular target: B1; experiment: ELISA; details: both partners purified

**Q.** Does B1 bind [1]?
**A.** binds

B2: recombinant human galectin-4 (natural protein, UniProt P56470 1-323, looked up)
chain: MAYVPAPGYQPTYNPTLPYYQPIPGGLNVGMSVYIQGVASEHMKRFFVNFVVGQDPGSDVAFHFNPRFDGWDKVVFNTLQGGKWGSEERKRSMPFKKGAAFELVFIVLAEHYKVVVNGNPFYEYGHRLPLQMVTHLQVDGDLQLQSINFIGGQPLRPQGPPMMPPYPGPGHCHQQLNSLPTMEGPPTFNPPVPYFGRLQGGLTARRTIIIKGYVPPTGKSFAINFKVGSSGDIALHINPRMGNGTVVRNSLLNGSWGSEEKKITHNPFGPGQFFDLSIRCGLDRFKVYANGQHLFDFAHRLSAFQRVDTLEIQGDVTLSYVQI
notes: also called GAL4
**Q.** Does B2 bind [2]?
**A.** binds
